Measurements as given in the supplement of paper PMC5998384.

Assays:
HeLa Kyoto [1] = assay: thermal stability score vs G1/S (z-score of summed log2 fold changes over temperatures); higher = more thermally stable than in G1/S
HeLa Kyoto [2] = assay: solubility change mitosis vs G1/S (difference of NP-40 vs SDS log2 ratios) (log2 ratio difference); higher = more soluble in mitosis
HeLa Kyoto [3] = assay: melting temperature (median over replicates), in situ; higher = more thermally stable
HeLa Kyoto [4] = assay: solubility in G1/S (NP-40 vs SDS abundance) (log2 ratio); higher = more soluble; settings: cell cycle stage: G1/S
[5] = cell cycle stage: early G1 (4.5 h after nocodazole release)
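Throughout, for melting temperature (median over replicates), in situ: HeLa Kyoto cells synchronized by double thymidine or nocodazole block, proteins quantified by TMT10plex mass spectrometry, three independent biological replicates.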
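Throughout, for solubility change mitosis vs G1/S (difference of NP-40 vs SDS log2 ratios): synchronized HeLa Kyoto cells (double thymidine block for G1/S, nocodazole release for mitosis), protein amounts in NP-40 versus SDS lysates quantified by mass spectrometry, three biological replicates.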
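Throughout, for solubility in G1/S (NP-40 vs SDS abundance): HeLa Kyoto cells arrested at G1/S by double thymidine block, proteins quantified by TMT10plex mass spectrometry in mild NP-40 versus SDS extracts, three biological replicates.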
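Throughout, for thermal stability score vs G1/S (z-score of summed log2 fold changes over temperatures): synchronized HeLa Kyoto cells, proteins quantified by TMT10plex mass spectrometry, three biological replicates, mitosis taken 0.5 h after nocodazole release, G1/S directly after double thymidine block.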

Sequence | thermal stability score (HeLa Kyoto [1]; [5]) | thermal stability score (HeLa Kyoto [1]; cell cycle stage: mitosis) | solubility change mitosis (log2) (HeLa Kyoto [2]) | melting temperature (HeLa Kyoto [3]; cell cycle stage: G1/S) | melting temperature (HeLa Kyoto [3]; cell cycle stage: mitosis) | solubility in G1/S (log2) (HeLa Kyoto [4])
MWALRAAVRPGLRLSRVGRGRSAPRAAAPSCPARALAAVGRRSPGNLEGPWGGGRGLRADGGRSRTGDDEEEPEDADENAEEELLRGEPLLPAGTQRVCLVHPDVKWGPGKSQMTRAEWQVAEATALVHTLDGWSVVQTMVVSTKTPDRKLIFGKGNFEHLTEKIRGSPDITCVFLNVERMAAPTKKELEAAWGVEVFDRFTVVLHIFRCNARTKEARLQVALAEMPLHRSNLKRDVAHLYRGVGSRYIMGSGESFMQLQQRLLREKEAKIRKALDRLRKKRHLLRRQRTRREFPVISVVGYTNCGKTTLIKALTGDAAIQPRDQLFATLDVTAHAGTLPSRMTVLYVDTIGFLSQLPHGLIESFSATLEDVAHSDLILHVRDVSHPEAELQKCSVLSTLRGLQLPAPLLDSMVEVHNKVDLVPGYSPTEPNVVPVSALRGHGLQELKAELDAAVLKATGRQILTLRVRLAGAQLSWLYKEATVQEVDVIPEDGAADVRVIISNSAYGKFRKLFPG [GTPBP6] | -0.762 | -0.462 | 0.00881 | 51.8 °C | 51.4 °C | -0.232
MWFFARDPVRDFPFELIPEPPEGGLPGPWALHRGRKKATGSPVSIFVYDVKPGAEEQTQVAKAAFKRFKTLRHPNILAYIDGLETEKCLHVVTEAVTPLGIYLKARVEAGGLKELEISWGLHQIVKALSFLVNDCSLIHNNVCMAAVFVDRAGEWKLGGLDYMYSAQGNGGGPPRKGIPELEQYDPPELADSSGRVVREKWSADMWRLGCLIWEVFNGPLPRAAALRNPGKIPKTLVPHYCELVGANPKVRPNPARFLQNCRAPGGFMSNRFVETNLFLEEIQIKEPAEKQKFFQELSKSLDAFPEDFCRHKVLPQLLTAFEFGNAGAVVLTPLFKVGKFLSAEEYQQKIIPVVVKMFSSTDRAMRIRLLQQMEQFIQYLDEPTVNTQIFPHVVHGFLDTNPAIREQTVKSMLLLAPKLNEANLNVELMKHFARLQAKDEQGPIRCNTTVCLGKIGSYLSASTRHRVLTSAFSRATRDPFAPSRVAGVLGFAATHNLYSMNDCAQKILPVLCGLTVDPEKSVRDQAFKAIRSFLSKLESVSEDPTQLEEVEKDVHAASSPGMGGAAASWAGWAVTGVSSLTSKLIRSHPTTAPTETNIPQRPTPEGVPAPAPTPVPATPTTSGHWETQEEDKDTAEDSSTADRWDDEDWGSLEQEAESVLAQQDDWSTGGQVSRASQVSNSDHKSSKSPESDWSSWEAEGSWEQGWQEPSSQEPPPDGTRLASEYNWGGPESSDKGDPFATLSARPSTQPRPDSWGEDNWEGLETDSRQVKAELARKKREERRREMEAKRAERKVAKGPMKLGARKLD [SCYL1] | 0.0922 | 0.113 | -0.184 | 50.9 °C | 50.3 °C | -0.162
MWGDSRPANRTGPFRGSQEERFAPGWNRDYPPPPLKSHAQERHSGNFPGRDSLPFDFQGHSGPPFANVEEHSFSYGARDGPHGDYRGGEGPGHDFRGGDFSSSDFQSRDSSQLDFRGRDIHSGDFRDREGPPMDYRGGDGTSMDYRGREAPHMNYRDRDAHAVDFRGRDAPPSDFRGRGTYDLDFRGRDGSHADFRGRDLSDLDFRAREQSRSDFRNRDVSDLDFRDKDGTQVDFRGRGSGTTDLDFRDRDTPHSDFRGRHRSRTDQDFRGREMGSCMEFKDREMPPVDPNILDYIQPSTQDREHSGMNVNRREESTHDHTIERPAFGIQKGEFEHSETREGETQGVAFEHESPADFQNSQSPVQDQDKSQLSGREEQSSDAGLFKEEGGLDFLGRQDTDYRSMEYRDVDHRLPGSQMFGYGQSKSFPEGKTARDAQRDLQDQDYRTGPSEEKPSRLIRLSGVPEDATKEEILNAFRTPDGMPVKNLQLKEYNTGYDYGYVCVEFSLLEDAIGCMEANQGTLMIQDKEVTLEYVSSLDFWYCKRCKANIGGHRSSCSFCKNPREVTEAKQELITYPQPQKTSIPAPLEKQPNQPLRPADKEPEPRKREEGQESRLGHQKREAERYLPPSRREGPTFRRDRERESWSGETRQDGESKTIMLKRIYRSTPPEVIVEVLEPYVRLTTANVRIIKNRTGPMGHTYGFIDLDSHAEALRVVKILQNLDPPFSIDGKMVAVNLATGKRRNDSGDHSDHMHYYQGKKYFRDRRGGGRNSDWSSDTNRQGQQSSSDCYIYDSATGYYYDPLAGTYYDPNTQQEVYVPQDPGLPEEEEIKEKKPTSQGKSSSKKEMSKRDGKEKKDRGVTRFQENASEGKAPAEDVFKKPLPPTVKKEESPPPPKVVNPLIGLLGEYGGDSDYEEEEEEEQTPPPQPRTAQPQKREEQTKKENEEDKLTDWNKLACLLCRRQFPNKEVLIKHQQLSDLHKQNLEIHRKIKQSEQELAYLERREREGKFKGRGNDRREKLQSFDSPERKRIKYSRETDSDRKLVDKEDIDTSSKGGCVQQATGWRKGTGLGYGHPGLASSEEAEGRMRGPSVGASGRTSKRQSNETYRDAVRRVMFARYKELD [RBM6] | 1.19 | 1.84 | 0.361 | 48.2 °C | 50 °C | -0.757
MWIQVRTMDGRQTHTVDSLSRLTKVEELRRKIQELFHVEPGLQRLFYRGKQMEDGHTLFDYEVRLNDTIQLLVRQSLVLPHSTKERDSELSDTDSGCCLGQSESDKSSTHGEAAAETDSRPADEDMWDETELGLYKVNEYVDARDTNMGAWFEAQVVRVTRKAPSRDEPCSSTSRPALEEDVIYHVKYDDYPENGVVQMNSRDVRARARTIIKWQDLEVGQVVMLNYNPDNPKERGFWYDAEISRKRETRTARELYANVVLGDDSLNDCRIIFVDEVFKIERPGEGSPMVDNPMRRKSGPSCKHCKDDVNRLCRVCACHLCGGRQDPDKQLMCDECDMAFHIYCLDPPLSSVPSEDEWYCPECRNDASEVVLAGERLRESKKKAKMASATSSSQRDWGKGMACVGRTKECTIVPSNHYGPIPGIPVGTMWRFRVQVSESGVHRPHVAGIHGRSNDGAYSLVLAGGYEDDVDHGNFFTYTGSGGRDLSGNKRTAEQSCDQKLTNTNRALALNCFAPINDQEGAEAKDWRSGKPVRVVRNVKGGKNSKYAPAEGNRYDGIYKVVKYWPEKGKSGFLVWRYLLRRDDDEPGPWTKEGKDRIKKLGLTMQYPEGYLEALANREREKENSKREEEEQQEGGFASPRTGKGKWKRKSAGGGPSRAGSPRRTSKKTKVEPYSLTAQQSSLIREDKSNAKLWNEVLASLKDRPASGSPFQLFLSKVEETFQCICCQELVFRPITTVCQHNVCKDCLDRSFRAQVFSCPACRYDLGRSYAMQVNQPLQTVLNQLFPGYGNGR [UHRF1] | 4.54 | 8.25 | 0.3 | 45.8 °C | 48.3 °C | -0.563
MWLEILLTSVLGFAIYWFISRDKEETLPLEDGWWGPGTRSAAREDDSIRPFKVETSDEEIHDLHQRIDKFRFTPPLEDSCFHYGFNSNYLKKVISYWRNEFDWKKQVEILNRYPHFKTKIEGLDIHFIHVKPPQLPAGHTPKPLLMVHGWPGSFYEFYKIIPLLTDPKNHGLSDEHVFEVICPSIPGYGFSEASSKKGFNSVATARIFYKLMLRLGFQEFYIQGGDWGSLICTNMAQLVPSHVKGLHLNMALVLSNFSTLTLLLGQRFGRFLGLTERDVELLYPVKEKVFYSLMRESGYMHIQCTKPDTVGSALNDSPVGLAAYILEKFSTWTNTEFRYLEDGGLERKFSLDDLLTNVMLYWTTGTIISSQRFYKENLGQGWMTQKHERMKVYVPTGFSAFPFELLHTPEKWVRFKYPKLISYSYMVRGGHFAAFEEPELLAQDIRKFLSVLERQ [EPHX1] | -3.88 | -2.14 | -0.197 | 57.9 °C | 58.1 °C | -0.336
MWLKVGGLLRGTGGQLGQTVGWPCGALGPGPHRWGPCGGSWAQKFYQDGPGRGLGEEDIRRAREARPRKTPRPQLSDRSRERKVPASRISRLANFGGLAVGLGLGVLAEMAKKSMPGGRLQSEGGSGLDSSPFLSEANAERIVQTLCTVRGAALKVGQMLSIQDNSFISPQLQHIFERVRQSADFMPRWQMLRVLEEELGRDWQAKVASLEEVPFAAASIGQVHQGLLRDGTEVAVKIQYPGIAQSIQSDVQNLLAVLKMSAALPAGLFAEQSLQALQQELAWECDYRREAACAQNFRQLLANDPFFRVPAVVKELCTTRVLGMELAGGVPLDQCQGLSQDLRNQICFQLLTLCLRELFEFRFMQTDPNWANFLYDASSHQVTLLDFGASREFGTEFTDHYIEVVKAAADGDRDCVLQKSRDLKFLTGFETKAFSDAHVEAVMILGEPFATQGPYDFGSGETARRIQDLIPVLLRHRLCPPPEETYALHRKLAGAFLACAHLRAHIACRDLFQDTYHRYWASRQPDAATAGSLPTKGDSWVDPS [ADCK4] | -0.115 | 0.518 | 0.0635 | 50.7 °C | 49.8 °C | 0.00454
MWRLPRALCVHAAKTSKLSGPWSRPAAFMSTLLINQPQYAWLKELGLREENEGVYNGSWGGRGEVITTYCPANNEPIARVRQASVADYEETVKKAREAWKIWADIPAPKRGEIVRQIGDALREKIQVLGSLVSLEMGKILVEGVGEVQEYVDICDYAVGLSRMIGGPILPSERSGHALIEQWNPVGLVGIITAFNFPVAVYGWNNAIAMICGNVCLWKGAPTTSLISVAVTKIIAKVLEDNKLPGAICSLTCGGADIGTAMAKDERVNLLSFTGSTQVGKQVGLMVQERFGRSLLELGGNNAIIAFEDADLSLVVPSALFAAVGTAGQRCTTARRLFIHESIHDEVVNRLKKAYAQIRVGNPWDPNVLYGPLHTKQAVSMFLGAVEEAKKEGGTVVYGGKVMDRPGNYVEPTIVTGLGHDASIAHTETFAPILYVFKFKNEEEVFAWNNEVKQGLSSSIFTKDLGRIFRWLGPKGSDCGIVNVNIPTSGAEIGGAFGGEKHTGGGRESGSDAWKQYMRRSTCTINYSKDLPLAQGIKFQ [ALDH7A1] | -0.224 | -1.8 | -0.107 | 54.3 °C | 54 °C | 0.167
MWRSCLRLRDGGRRLLNRPAGGPSASMSPGPTIPSPARAYAPPTERKRFYQNVSITQGEGGFEINLDHRKLKTPQAKLFTVPSEALAIAVATEWDSQQDTIKYYTMHLTTLCNTSLDNPTQRNKDQLIRAAVKFLDTDTICYRVEEPETLVELQRNEWDPIIEWAEKRYGVEISSSTSIMGPSIPAKTREVLVSHLASYNTWALQGIEFVAAQLKSMVLTLGLIDLRLTVEQAVLLSRLEEEYQIQKWGNIEWAHDYELQELRARTAAGTLFIHLCSESTTVKHKLLKE [ATPAF2] | -0.051 | -1.43 | -0.295 | 56.8 °C | 56 °C | 0.104
